Results: article PMC6791878, “Evaluation of integrin αvβ6 cystine knot PET tracers to detect cancer and idiopathic pulmonary fibrosis” (Nature Communications, 2019)
Several values for one entry are separate records, joined by “and”; a condition that tells them apart may be missing. Identical values can stand only once. Like-named read-outs stand apart in the source and are kept apart here.

How the values were obtained:
[1] = system: integrin αvβ6-positive A431 xenografts; test: Static small animal PET, integrin αvβ6-positive tumor model; format: in vivo, mouse; settings: microPET 1 hr, individual mice, listed as Ro1-MG NODAGA Ga-68
clinical = settings: human, iv, total radioactivity
Description: (§3) The administered dose was 55.5–96.2MBq (1.5–2.6 mCi). The scan (6 bed positions, 2 min bed^−1) covered an area that included the top of the skull to the middle of the femur. OSEM was applied for reconstruction. […] The CT scan (140 kV, 35 mA, pitch of 1:1, layer of 5 mm thickness; layer spacing of 3 mm, 512*512 matrix, field of view of 70 cm) also covered the top of the skull to the middle of the femur. […] Immediately upon completion of the first scan, the second whole-body static PET data was acquired. Sequentially, multiple whole-body static PET scans were acquired, one by one, from 0 to 75 min.
(§4) Upon co-registration of the PET and CT images, the CT images were used to determine regions of interest for the organs or tissues reported in the manuscript. These ROIs were applied to the PET images of the brain, pituitary gland, breast, lower and upper large intestine, small intestine, stomach, pancreas, heart wall, liver, lung, muscle, red marrow, bone, skin, and thyroid gland. For high uptake organs such as the kidneys, bladder and for the whole body, threshold-based segmentation of PET images were used to determine a close-fitting ROI around the entire organ or whole body. In order to determine accuracy, these PET-derived ROIs were compared to the CT overlay for a close match.

[2] = system: integrin αvβ6-positive A431 xenografts; test: Static small animal PET, integrin αvβ6-positive tumor model; format: in vivo, mouse
Description: (§1) Eight planes were acquired in the coronal section.
(§2) Supplementary Figure 5. [18F]FP-R01-MG-F2 Static PET Imaging. (A) Representative PET images of nu/nu mice bearing in integrin αvβ6-positive A431 xenografts (left) and integrin αvβ6-negative 293 xenograft (right) models following injection of […] [18F]FP-R01-MG-F2. Location of tumor and kidneys are indicated by the letters T and K.

[3] = as above; format: in vivo, mouse; settings: female, athymic nude (Nu/Nu), mouse, in vivo, iv, 100 uCi, total radioactivity, PET, 1 h p.i., average ± SD, n = 3
Description: as §1, §2

[4] = system: pancreatic, cervical and lung cancer; settings: one patient, Fig 4C
Description: as §3, §4

[5] = microPET 1 hr, individual mice, listed as Ro1-MG NODAGA Ga-68

SMILES: CC[C@H](C)[C@@H]1NC(=O)[C@@H](NC(=O)CNC(=O)CCC(C(=O)O)N2CCN(CC(=O)O)CCN(CC(=O)O)CC2)CSSC[C@@H]2NC(=O)[C@H](C)NC(=O)CNC(=O)[C@@H]3CCCN3C(=O)[C@@H]3CSSC[C@@H](C(=O)NCC(N)=O)NC(=O)[C@H](Cc4ccc(O)cc4)NC(=O)CNC(=O)[C@H](CC(N)=O)NC(=O)CNC(=O)[C@H](CCCNC(=N)N)NC(=O)[C@H](CSSC[C@H](NC(=O)[C@H](CCCNC(=N)N)NC(=O)[C@H](Cc4ccccc4)NC(=O)[C@H](CC(C)C)NC(=O)[C@H](CC(C)C)NC(=O)[C@H]([C@@H](C)O)NC(=O)CNC(=O)[C@H](CC(C)C)NC(=O)[C@H](CC(=O)O)NC(=O)[C@H]([C@@H](C)O)NC(=O)[C@H](CCCNC(=N)N)NC(=O)CNC(=O)[C@H](CC(N)=O)NC(=O)[C@H](CC(C)C)NC1=O)C(=O)N[C@@H](CCCNC(=N)N)C(=O)N[C@@H](CCCNC(=N)N)C(=O)N[C@@H](CC(=O)O)C(=O)N[C@@H](CO)C(=O)N[C@@H](CC(=O)O)C(=O)N3)NC(=O)[C@H]([C@@H](C)CC)NC2=O (stereo partly shown) [[^68Ga]NODAGA-R01-MG, metal not drawn]
- Tumor avb6(+) ([1]; source data of Table 3): 3.142 and 2.463 and 2.614 and 2.906
- Liver [1]: 0.7389 and 1.216 and 1.257 and 1.6013
- SUV (clinical; both, kidney, average SUVmean, ~1 h p.i., cancer patients): 19.9 ± 2.23 SUV
- SUV (clinical; both, normal pancreas, SUVmean, n = 5, ± S.D.): 1.79 ± 0.47 SUV
- SUV (clinical; both, pancreatic tumour, average SUVmean, pancreatic cancer, pancreatic cancer patients): 4.2 ± 0.1 SUV
- SUV (clinical; both, small intestines, average SUVmean, cancer patients): 7.06 ± 2.74 SUV
- SUV (clinical; both, stomach, average SUVmean, cancer patients): 8.87 ± 6.52 SUV
- SUV (clinical; head of pancreas, SUVmean, one pancreatic cancer patient (Fig 4d)): ~3.1 SUV
- SUV (clinical; lung tumor, SUVmean, patient, squamous cell carcinoma of the lung): 2.2 SUV
- SUV (clinical; tail of pancreas, SUVmean, one pancreatic cancer patient (Fig 4d)): ~4.4 SUV
- SUV (clinical; tumor in tail of pancreas, 2.2 mCi, SUVmean, patient, ~50 minutes p.i.): 4.3 SUV
- Muscle ([2]; PET, 1 h p.i., average ± SD, n = 3): 0.6 ± 0.1 %ID g^−1
- Kidney [2, 5]: 34.6175 and 26.042 and 24.5731 and 34.9763
- Muscle [2, 5]: 0.5495 and 0.6119 and 0.4496 and 0.7461
- tissue uptake at 1 h ([3]; αvβ6 (+), read-out: Tumor): 2.78 ± 0.3 %ID/g
- tissue uptake at 1 h ([3]; read-out: Kidney): 30.1 ± 5.51 %ID/g
- tissue uptake at 1 h ([3]; read-out: Liver): 1.2 ± 0.35 %ID/g
- tissue uptake at 1 h ([3]; read-out: Muscle): 0.589 ± 0.124 %ID/g
- tissue to tissue ratio at 1 h ([3]; read-out: T:M Ratio (tumor-to-muscle)): 4.86 ± 1.04
- ROI uptake Bl (bladder) ([4]; 9 min p.i.): 1.885
- ROI uptake Bn (osteogenic cells) ([4]; 9 min p.i.): 0.4959
- ROI uptake Br (brain) ([4]; 9 min p.i.): 0.05775
- ROI uptake Brs (breast) ([4]; 9 min p.i.): 0.428
- ROI uptake HC (heart contents) ([4]; 9 min p.i.): 1.158
- ROI uptake HW (heart wall) ([4]; 9 min p.i.): 0.7507
- ROI uptake LLI (lower large intestine) ([4]; 9 min p.i.): 1.4
- ROI uptake Ln (lung) ([4]; 9 min p.i.): 0.3091
- ROI uptake Lv (liver) ([4]; 9 min p.i.): 0.8628
- ROI uptake Ms (muscle) ([4]; 9 min p.i.): 0.6964
- ROI uptake Pn (pancreas) ([4]; 9 min p.i.): 1.576
- ROI uptake Pt (pituitary gland) ([4]; 9 min p.i.): 2.269
- ROI uptake RM (red marrow) ([4]; 9 min p.i.): 0.2412
- ROI uptake SI (small intestine) ([4]; 9 min p.i.): 6.974
- ROI uptake Sk (skin) ([4]; 9 min p.i.): 0.09851
- ROI uptake Sp (spleen) ([4]; 9 min p.i.): 0.7065
- ROI uptake St (stomach) ([4]; 9 min p.i.): 2.524
- ROI uptake TB (total body) ([4]; 9 min p.i.): 0.6998
- ROI uptake Tm (thymus) ([4]; 9 min p.i.): 0.7337
- ROI uptake Tr (thyroid) ([4]; 9 min p.i.): 1.94
- ROI uptake ULI (upper large intestine) ([4]; 9 min p.i.): 1.923
- ROI uptake Bl (bladder) ([4]; 22 min p.i.): 6.4
- ROI uptake Bn (osteogenic cells) ([4]; 22 min p.i.): 0.4058
- ROI uptake Br (brain) ([4]; 22 min p.i.): 0.03902
- ROI uptake Brs (breast) ([4]; 22 min p.i.): 0.5151
- ROI uptake HC (heart contents) ([4]; 22 min p.i.): 0.7844
- ROI uptake HW (heart wall) ([4]; 22 min p.i.): 0.4761
- ROI uptake LLI (lower large intestine) ([4]; 22 min p.i.): 1.495
- ROI uptake Ln (lung) ([4]; 22 min p.i.): 0.3044
- ROI uptake Lv (liver) ([4]; 22 min p.i.): 0.7375
- ROI uptake Ms (muscle) ([4]; 22 min p.i.): 0.6868
- ROI uptake Pn (pancreas) ([4]; 22 min p.i.): 1.214
- ROI uptake Pt (pituitary gland) ([4]; 22 min p.i.): 1.986
- ROI uptake RM (red marrow) ([4]; 22 min p.i.): 0.1015
- ROI uptake SI (small intestine) ([4]; 22 min p.i.): 7.153
- ROI uptake Sk (skin) ([4]; 22 min p.i.): 0.09365
- ROI uptake Sp (spleen) ([4]; 22 min p.i.): 0.5971
- ROI uptake St (stomach) ([4]; 22 min p.i.): 2.337
- ROI uptake TB (total body) ([4]; 22 min p.i.): 0.6751
- ROI uptake Tm (thymus) ([4]; 22 min p.i.): 0.7375
- ROI uptake Tr (thyroid) ([4]; 22 min p.i.): 0.7922
- ROI uptake ULI (upper large intestine) ([4]; 22 min p.i.): 1.432
- ROI uptake Bl (bladder) ([4]; 36 min p.i.): 8.426
- ROI uptake Bn (osteogenic cells) ([4]; 36 min p.i.): 0.4395
- ROI uptake Br (brain) ([4]; 36 min p.i.): 0.03531
- ROI uptake Brs (breast) ([4]; 36 min p.i.): 0.6278
- ROI uptake HC (heart contents) ([4]; 36 min p.i.): 0.722
- ROI uptake HW (heart wall) ([4]; 36 min p.i.): 0.4798
- ROI uptake LLI (lower large intestine) ([4]; 36 min p.i.): 1.238
- ROI uptake Ln (lung) ([4]; 36 min p.i.): 0.3094
- ROI uptake Lv (liver) ([4]; 36 min p.i.): 0.6906
- ROI uptake Ms (muscle) ([4]; 36 min p.i.): 0.7579
- ROI uptake Pn (pancreas) ([4]; 36 min p.i.): 1.296
- ROI uptake Pt (pituitary gland) ([4]; 36 min p.i.): 2.22
